According to patent EP0751225B1, “Process for the identification of proteolytic activities and/or inhibitors thereof” (TECNOGEN S.C.P.A., priority 1990, dated 1992):

Molecular target: T1, ET [16-29] (Homo sapiens, UniProt P05305)
T1 construct: made in house; host or cells: chemical solid-phase peptide synthesis (Fmoc)
Assay: Capacity of affinity chromatography columns prepared with the immobilized peptides (retention of injected ET [16-29])
Type: binding
Details: 500 microlitres of ET [16-29] at 1 mg/ml injected; peptide immobilized on EUPERGIT C30 N; 0.1 M TRIS HCL pH 6.8, 1 ml/min
Protocol: The peptides Δ ET [16-29] and 8 Δ ET [16-29] have immobilized on a support previously activated through the introduction of epoxide groups (EUPERGIT C30 N), employing the same peptide/support ratio. The peptides 8 Δ ET [16-29] (2 mg) and Δ ET [16-29] (2 mg) have been dissolved separately in 10 ml of 0.1 M […], 0.5 M NaCl, pH 8.5, and added separately to two aliquots of 1 g of EUPERGIT C30 N. The mixtures have been incubated for 24 hours under stirring at room temperature. The introduction of the peptides within the resin has been followed by means of RP-HPLC, and after 24 hours an amount of about 80 % of the peptide initially present in the two preparations turned out to be covalently linked to the support. Such incorporation percentage has been then confirmed by analysis of amino acids, which analysis were carried out on weighed amounts of the two derivatized resins.
The two derivatized peptide supports were employed for filling two glass columns for affinity chromatography (80 x 6.6 mm I.D., total volume 2.3 ml) that were equilibrated with 0.1 M TRIS* HCL, at pH 6.8 and with a flowrate of 1 ml/min. The eluent was continuously monitored by means of optical absorption determinations at 280 nm wavelength. For determining the capacity of the columns, 500 microlitres of ET [16-29] dissolved at a concentration of 1 mg/ml in the elution buffer were injected. […]

**Q.** Which “injected material retained by the column” value does the source give for RKFLAGLRARRLKF [Δ ET [16-29]] here?
**A.** 50%
